PMC3276087 (Journal of Experimental Botany, 2011)
Substitutions are numbered along the chain they refer to. Names and notes keep the numbering of the source.

B1: His-tagged ACA8 N-terminus, wild type (6His-1M-I116) (domain or fragment)
chain: MTSLLKSSPGRRRGGDVESGKSEHADSDSDTFYIPSKNASIERLQQWRKAALVLNASRRFRYTLDLKKEQETREMRQKIRSHAHALLAANRFMDMGRESGVEKTTGPATPAGDFGI
B2: His-tagged ACA8 N-terminus S22D (6His-1M-I116) (domain or fragment)
chain: B1 chain with S22D
B3: His-tagged ACA8 N-terminus S19D (6His-1M-I116) (domain or fragment)
chain: B1 chain with S19D
B4: His-tagged ACA8 N-terminus S27D (6His-1M-I116) (domain or fragment)
chain: B1 chain with S27D
B5: His-tagged ACA8 N-terminus S57D (6His-1M-I116) (domain or fragment)
chain: B1 chain with S57D
B6: His-tagged ACA8 N-terminus S29D (6His-1M-I116) (domain or fragment)
chain: B1 chain with S29D
B7: His-tagged ACA8 N-terminus S99D (6His-1M-I116) (domain or fragment)
chain: B1 chain with S99D

Each binder was assayed against bovine testes calmodulin (bovine, UniProt P62157 1-149) (assay: SPR).

| Kd [nM] | koff [s⁻¹] | kon [M⁻¹ s⁻¹] | Binder |
| --- | --- | --- | --- |
| 19.3 | 0.00244 | 127000 | B1 |
| 23.9 | 0.00139 | 58000 | B2 |
| 14.5 | 0.00325 | 224000 | B3 |
| 26.5 | 0.0052 | 196000 | B4 |
| 165 | 0.0255 | 154000 | B5 |
| 22.3 | 0.00382 | 171000 | B6 |
| 11.3 | 0.00137 | 121000 | B7 |
